According to US20030198640A1 (Human Genome Sciences, published 2003):

B1: full length TNF-gamma-beta expressed on the cell surface (HEK293F stable transfectants; cells transfected with TNF-gamma-β) (ligand)
chain: MAEDLGLSFGETASVEMLPEHGSCRPKARSSSARWALTCCLVLLPFLAGLTTYLLVSQLRAQGEACVQFQALKGQEFAPSHQQVYAPLRADGDKPRAHLTVVRQTPTQHFKNQFPALHWEHELGLAFTKNRMNYTNKFLLIPESGDYFIYSQVTFRGMTSECSEIRQAGRPNKPDSITVVITKVTDSYPEPTQLLMGTKSVCEVGSNWFQPIYLGAMFSLQEGDKLMVNVSDISLVDYTKEDKTFFGAFLL
notes: also called TNF-gamma-beta expressing cells
B2: DR3-Fc (extracellular domain of human DR3, aa 1-199, fused at its C-terminus to the Fc domain of human IgG1) (Fc fusion)
chain: QGGTRSPRCDCAGDFHKKIGLFCCRGCPAGHYLKAPCTEPCGNSTCLVCPQDTFLAWENHHNSECARCQACDEQASQVALENCSAVADTRCGCKPGWFVECQVSQCVSSSPFYCQPCLDCGALHRHTRLLCSRRDTDCGTCLPGFYEHGDGCVSCPTSTLGSCPERCAAVCGWRQ
notes: not shown: Fc domain of human IgG1
B3: TACI-Fc (extracellular domain of human TACI, aa 1-159, fused to the Fc domain of human IgG1) (Fc fusion, UniProt O14836 1-159, looked up)
chain: MSGLGRSRRGGRSRVDQEERFPQGLWTGVAMRSCPEEQYWDPLLGTCMSCKTICNHQSQRTCAAFCRSLSCRKEQGKFYDHLLRDCISCASICGQHPKQCAYFCENKLRSPVNLPPELRRQRSGEVENNSDNSGRYQGLEHRGSEASPALPGLKLSADQ
notes: range 1-159; also called TAC1 (Fc-fusion); not shown: Fc domain of human IgG1
B4: BCMA-Fc (Fc fusion, human, UniProt Q02223 1-54, looked up)
chain: MLQMAGQCSQNEYFDSLLHACIPCQLRCSSNTPPLTCQRYCNASVTNSVKGTNA
notes: not shown: Fc part

Tests used:
[1] = biological target: T1, TR6-Fc (full-length human TNFR-6 alpha, SEQ ID NO:6 aa 1-300, fused to the Fc domain of human IgG1) (human, UniProt O95407 30-300); experiment: FACS on transfected cells
T1 construct: also called TNFR-6 alpha Fc fusion protein; DcR3-Fc; not shown: Fc domain of human IgG1
T1 sequence: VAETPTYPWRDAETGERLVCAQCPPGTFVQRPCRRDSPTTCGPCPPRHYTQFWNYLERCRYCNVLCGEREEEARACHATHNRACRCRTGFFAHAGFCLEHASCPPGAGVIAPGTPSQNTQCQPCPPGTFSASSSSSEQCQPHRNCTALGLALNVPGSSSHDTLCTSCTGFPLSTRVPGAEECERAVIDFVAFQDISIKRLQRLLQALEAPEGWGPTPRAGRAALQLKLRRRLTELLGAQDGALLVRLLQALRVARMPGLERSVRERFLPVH

[2] = biological target: T2, DR6 (Fc-fusion form of the extracellular domain) (UniProt O75509 42-349, limits assumed); experiment: flow cytometry on HEK293F cells expressing full length TNF-gamma-beta
T2 construct: extracellular domain; not shown: Fc part
T2 sequence (looked up): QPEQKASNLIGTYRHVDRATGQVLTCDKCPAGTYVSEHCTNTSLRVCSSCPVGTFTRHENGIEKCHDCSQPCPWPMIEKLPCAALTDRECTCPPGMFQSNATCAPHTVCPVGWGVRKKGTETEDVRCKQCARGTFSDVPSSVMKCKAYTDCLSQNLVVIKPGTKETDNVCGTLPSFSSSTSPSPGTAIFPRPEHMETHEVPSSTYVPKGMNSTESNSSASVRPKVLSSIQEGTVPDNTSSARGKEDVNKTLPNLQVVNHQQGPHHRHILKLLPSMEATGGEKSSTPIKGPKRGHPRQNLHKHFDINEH
Description: (§1) These cells were used to screen the Fc-fusion form of the extracellular domain of TNFR family members, including TNFR1, Fas, HveA, DR3, DR4, DR5, DR6, DcR1, DcR2, TR6, OPG, RANK, AITR, TAC1, CD40, and OX40. […] TR6 has been previously described as a decoy receptor (Pitti et al., Nature 396:699-703 (1998); Yu et al., J. Biol. Chem. 274:13733-6 (1999)) capable of competing with Fas and HveA for binding of FasL and LIGHT, respectively.
(§2) One million cells, in 0.1 ml of FACS buffer (PBS, 0.1% BSA, 0.1% NaN₃), were incubated with 0.1-1 microgram of protein or antibody at RT for 15 min. The cells were washed with 3 ml of FACS buffer, reacted with biotinylated primary antibody, and stained with PE-conjugated secondary antibody at RT for 15 min. Cells were then washed again, resuspended in 0.5 microgram/ml of propidium iodide, and live cells were gated and analyzed on a FACScan using the CellQuest software (BD Biosciences).

[3] = biological target: T3, TNF-gamma-β polypeptide (amino acid residues 72-251 of SEQ ID NO:2), untagged recombinant protein (human, UniProt O95150 72-251); experiment: BIAcore, DR3-Fc immobilised, three batches of TNF-gamma-beta; DR3-Fc
T3 construct: also called TL1β
T3 sequence: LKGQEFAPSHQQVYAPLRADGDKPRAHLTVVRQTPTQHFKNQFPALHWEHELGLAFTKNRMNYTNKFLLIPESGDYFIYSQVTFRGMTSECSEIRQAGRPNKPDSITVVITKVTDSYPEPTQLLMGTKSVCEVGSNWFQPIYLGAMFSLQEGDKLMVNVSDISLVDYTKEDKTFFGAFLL
Description: (§3) TNFR-Fc were covalently immobilized to the BIAcore sensor chip (CM5 chip) via amine groups using N-ethyl-N′-(dimethylaminopropyl) carbodiimide/N-hydroxysuccinimide chemistry. […] The amount of bound protein was determined during washing of the flow cell with HBS buffer (10 mM HEPES, pH 7.4, 150 mM NaCl, 3.4 mM EDTA, 0.005% Surfactant P20). The flow cell surface was regenerated by displacing bound protein by washing with 20 microliters of 10 mM glycine-HCl, pH 2.3. For kinetic analysis, the on and off rates were determined using the kinetic evaluation program in BIAevaluation 3 software using a 1:1 binding model and the global analysis method.

[4] = biological target: T3, TNF-gamma-β polypeptide (amino acid …); experiment: BIAcore, DR3-Fc immobilised, average of three batches; DR3-Fc, average of three batches
Description: as §3

[5] = biological target: B1; experiment: flow cytometry on HEK293F cells expressing full length TNF-gamma-beta
Description: as §1, §2

[6] = biological target: T4, FLAG-tagged soluble form of TNF-gamma-beta (aa 72-251) (human, UniProt O95150 72-251); experiment: co-immunoprecipitation with protein A-Sepharose, anti-Flag blot
T4 construct: also called FLAG-TL1β; FLAG-TNF-gamma-beta; not shown: FLAG tag of the pFLAG-CMV-1 vector at the amino terminus
T4 sequence: T3 sequence
Description: The beads were then precipitated and washed extensively with PBST buffer (PBS, 0.5% Triton X-100) before boiled in SDS-sample buffer. Proteins were resolved on 4-20% Tris-Glycine gels (NOVEX), transferred to nitrocellulose membranes, and blotted with anti-Flag M2 monoclonal antibody (1 microgram/ml, Sigma) and horseradish peroxidase (HRP)-conjugated goat anti-mouse IgG antibody (0.5 microgram/ml).

[7] = biological target: T3, TNF-gamma-β polypeptide (amino acid …); experiment: BIAcore, control receptor surface
Description: as §3

B1: binds [1]; no binding [2].

With B2 the koff [3] was 0.00413 s⁻¹, the kon [3] was 639000 M⁻¹ s⁻¹ and the Kd [4] was 6.45 nM.

B3: no binding [5]; no binding [6].

B4: no binding (tested: 370 nM (top of the range 3-370 nM)) [7].
